Patent US10261099B2, “Cancer marker and therapeutic target” (Cancer Research Technology Ltd., priority 2007, dated 2019)
Entries after “also recorded” stand apart in the source; their conditions may differ.

Tests used:
[1] = test system: CCR4 positive and negative cells; experiment: CCR4 expression of CCR4 positive and negative cells exposed to cytokines; assay type: cell-based; conditions: cytokines of the cervical microenvironment
Excerpt: CCR4 positive and negative cells were exposed to a number of cytokines (TNF-α, TGF-β, IFN-γ, IL-4 and IL-10) known to be present in the cervical microenvironment and for which receptors were likely to be present on the tumour cells.

[2] = test system: C41 cervical cancer cell line; experiment: CCR4 expression on C41 cells after cytokine stimulation (FACS); assay type: cell-based, human; conditions: 20 ng/ml, 24 h, versus unstimulated cells
Protocol: Dashed line: isotype control; grey line CCR4 expression; bold line; CCR4 expression after cytokine stimulation.
The most common cytokines present in a tumour are IL-10, TGF-β, FGF, TNF-α. The C41 cervical cancer cell line was stimulated in culture with different cytokines (IL-10, TNF-α, TGF-β, FGF; 20 ng/ml) for 24 h. The expression of CCR4 was then determined by FACS analysis.

[3] = target: T1, CCR4 (Homo sapiens, UniProt P51679); experiment: CCR4 expression/internalization on C-41 cells after ligand stimulation (FACS); assay type: cell-based; conditions: stimulation with 100 ng/ml ligand
T1 construct: The cell line C-41 expressed cell surface CCR4 in a constitutive manner; host or cells: C-41 cervical cancer cell line
T1 sequence (P51679 1-360): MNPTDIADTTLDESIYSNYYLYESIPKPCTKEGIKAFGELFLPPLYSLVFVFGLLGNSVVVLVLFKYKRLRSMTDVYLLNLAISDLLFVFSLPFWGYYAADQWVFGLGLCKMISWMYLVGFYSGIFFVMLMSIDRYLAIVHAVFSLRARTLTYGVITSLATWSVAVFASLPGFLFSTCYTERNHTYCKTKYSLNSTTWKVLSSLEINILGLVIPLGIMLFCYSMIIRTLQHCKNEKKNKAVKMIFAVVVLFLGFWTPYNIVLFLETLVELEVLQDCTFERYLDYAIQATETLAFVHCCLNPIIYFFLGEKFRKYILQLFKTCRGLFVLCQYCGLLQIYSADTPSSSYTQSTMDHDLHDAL
Protocol: Values are the mean±SD of 10 determinations,*P <0.05, **P<0.01.
(§1) The cervical cancer cell line C-41 (ATCC, Rockville, Md, USA) was cultured in DMEM medium supplemented with 10% FCS. […] Proliferation and migration were assessed using methods described previously.
To investigate the biological significance of CCR4 expression on cervical cancer cells a number of cervical cancer cell lines (CaSki, Me180, Hela-Ohio, Hela-S3, Siha, C33A, C41-1) were screened for CCR4 expression.

[4] = test system: C-41 cervical cancer cell line; experiment: trans-well migration assay of C-41 cells towards CCR4 ligands; assay type: cell-based, human; conditions: for chemotactic response of C-41 cells: trans-well migration assay
Protocol: as §1
To investigate the biological significance of CCR4 expression on cervical cancer cells a number of cervical cancer cell lines (CaSki, Me180, Hela-Ohio, Hela-S3, Siha, C33A, C41-1) were screened for CCR4 expression. The cell line C-41 expressed cell surface CCR4 in a constitutive manner (FIG. 6A). Using FACS analysis it was shown that C-41 cells expressed cell surface CCR4. […] Following stimulation with 100 ng/ml CCL22, cell surface CCR4 protein was internalized on C-41 cells after 2 hours and returned back to the surface after 3 hours (FIG. 6B).

[5] = test system: C-41 cervical cancer cell line; experiment: C-41 growth/proliferation under suboptimal conditions after ligand stimulation; assay type: cell-based, human; conditions: 6 days

TNF-α
influence on CCR4 expression [1]: None of these influenced CCR4 expression

TGF-β
CCR4 expression on C41 cells after cytokine stimulation [2]: upregulated in terms of percentage of positive cells | influence on CCR4 expression [1]: None of these influenced CCR4 expression

B1: IL-10: cytokine commonly present in a tumour, used to stimulate C41 cells (protein, UniProt P22301 19-178, looked up)
Interleukin-10: SPGQGTQSENSCTHFPGNLPNMLRDLRDAFSRVKTFFQMKDQLDNLLLKESLLEDFKGYLGCQALSEMIQFYLEEVMPQAENQDPDIKAHVNSLGENLKTLRLRLRRCHRFLPCENKSKAVEQVKNAFNKLQEKGIYKAMSEFDIFINYIEAYMTMKIRN
CCR4 expression on C41 cells after cytokine stimulation [2]: upregulated in terms of percentage of positive cells | influence on CCR4 expression [1]: None of these influenced CCR4 expression

B2: IL-4: cytokine known to be present in the cervical microenvironment (protein, UniProt P05112 25-153, looked up)
Interleukin-4: HKCDITLQEIIKTLNSLTEQKTLCTELTVTDIFAASKNTTEKETFCRAATVLRQFYSHHEKDTRCLGATAQQFHRHKQLIRFLKRLDRNLWGLAGLNSCPVKEANQSTLENFLERLKTIMREKYSKCSS
influence on CCR4 expression [1]: None of these influenced CCR4 expression

B3: CCL22: chemokine ligand of CCR4 (PeproTech) used to stimulate C-41 cells (protein, UniProt O00626 25-93, looked up)
C-C motif chemokine 22: GPYGANMEDSVCCRDYVRYRLPLRVVKHFYWTSDSCPRPGVVLLTFRDKEICADPRVPWVKMILNKLSQ
cell surface CCR4 protein internalized on C-41 cells after [3]: 2 h | cell surface CCR4 returned back to the surface after [3]: 3 h | chemotactic response of C-41 cells [4]: typical bell-shaped chemotactic response | C-41 cell growth / proliferation ([5]; 1 ng/ml): significant increased growth; also recorded: simulated C-41 cell growth | C-41 cell growth / proliferation ([5]; 10 ng/ml): not | C-41 cell growth / proliferation ([5]; 100 ng/ml): significant increased growth; also recorded: simulated C-41 cell growth

B4: IFN-γ: cytokine known to be present in the cervical microenvironment (protein, UniProt P01579 24-161, looked up)
Interferon gamma: QDPYVKEAENLKKYFNAGHSDVADNGTLFLGILKNWKEESDRKIMQSQIVSFYFKLFKNFKDDQSIQKSVETIKEDMNVKFFNSNKKKRDDFEKLTNYSVTDLNVQRKAIHELIQVMAELSPAAKTGKRKRSQMLFRG
influence on CCR4 expression [1]: None of these influenced CCR4 expression

B5: CCL17: chemokine ligand of CCR4 (PeproTech) used to stimulate C-41 cells (protein, UniProt Q92583 24-94, looked up)
C-C motif chemokine 17: ARGTNVGRECCLEYFKGAIPLRKLKTWYQTSEDCSRDAIVFVTVQGRAICSDPNNKRVKNAVKYLQSLERS
cell surface CCR4 returned back to the surface after [3]: 3 h | migration of C-41 cells ([4]; 10 ng/ml): induced significant migration | migration of C-41 cells ([4]; 100 ng/ml): induced significant migration | migration of C-41 cells ([4]; 1000 ng/ml): induced significant migration | chemotactic response of C-41 cells [4]: typical bell-shaped chemotactic response | C-41 cell growth / proliferation ([5]; 1 ng/ml): not | C-41 cell growth / proliferation ([5]; 10 ng/ml): significant growth increase; also recorded: increased proliferation | C-41 cell growth / proliferation ([5]; 100 ng/ml): significant growth increase; also recorded: increased proliferation
